According to patent US20180222961A1 (IMMATICS BIOTECHNOLOGIES, published 2018):

Legend:
HLA-A*03:01 = biological target: T1, HLA-A*03:01 (human); assay: UV-exchange b2m ELISA; exchange-yield grade
T1 construct: also called peptide-receptive MHC molecules
Summary of the method: (§1)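 UV-exchange products diluted 100-fold, captured on streptavidin-coated wells, 1 h 37 °C; HRP anti-β2m 2 ug/ml, 1 h 37 °C; TMB, A450. Standards: refolded HLA-A*02:01/MLA-001, 15-500 ng/ml. Yield = β2m signal of stabilised MHC.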

HLA-B*44:02 = biological target: T2, HLA-B*44:02 (human); assay: UV-exchange b2m ELISA; exchange-yield grade
T2 construct: also called peptide-receptive MHC molecules
Summary of the method: as §1

Binder	peptide exchange yield (HLA-B*44:02) [%]	also measured
RVAELLLLH		peptide exchange yield (HLA-A*03:01): 20 to 50%
AEFLLRIFL	20 to 50	
KESIPRWYY	20 to 50	
REAGDEFELRY	20 to 50	
GEGPKTSW	20 to 50	
SEDGLPEGIHL	20 to 50	
NEAIMHQY	20 to 50	
REAGDEFEL	20 to 50	
AEATARLNVF		binding result (HLA-B*44:02): binds
KLQPAQTAAK		peptide exchange yield (HLA-A*03:01): 20 to 50%
GEMEQKQL	20 to 50	
KEFLFNMY	20 to 50	
KILEEHTNK		peptide exchange yield (HLA-A*03:01): 20 to 50%
QEAARAAL	20 to 50	
SEDPSKLEA	10 to 20	
KVAGERYVYK		peptide exchange yield (HLA-A*03:01): 50 to 75%
YEKGIMQKV	20 to 50	
TEVSRTEL	20 to 50	
NEIWTHSY	10 to 20	
IEALSGKIEL (also called lEALSGKIEL)	20 to 50	
SEITRIEM	20 to 50	
LEKALQVF	20 to 50	
SFEQVVNELF	20 to 50	
LELPPILVY	10 to 20	
VVLLGSLFSRK		peptide exchange yield (HLA-A*03:01): 20 to 50%
AVAPPTPASK		peptide exchange yield (HLA-A*03:01): 20 to 50%
GEIEIHLL	10 to 20	

Binder	peptide exchange yield (HLA-B*44:02) [%]	also measured
ATFERVLLR		peptide exchange yield (HLA-A*03:01): 50 to 75%
REGPEEPGL	20 to 50	
MEHPGKLLF		binding result (HLA-B*44:02): binds
REGDTVQLL	20 to 50	
QEILTQVKQ	20 to 50	
EDGRLVIEF	10 to 20	
LEAQQEAL	20 to 50	
KEVDPTSHSY	20 to 50	
AEHEGVSVL	20 to 50	
EEAQWVRKY	20 to 50	
VVHAVFALK		peptide exchange yield (HLA-A*03:01): 50 to 75%
EDAALFKAW	20 to 50	
KVVDRWNEK		peptide exchange yield (HLA-A*03:01): 20 to 50%
KTYETNLEIKK		peptide exchange yield (HLA-A*03:01): 50 to 75%
AEDKRHYSV	20 to 50	
TEVSRTEAI	20 to 50	
AEIEPKADG	20 to 50	
RELANDELIL	20 to 50	
AERQPGAASL	20 to 50	
QSMYYPLQLK		peptide exchange yield (HLA-A*03:01): 20 to 50%
ALEVAHRLK		peptide exchange yield (HLA-A*03:01): 20 to 50%
RSLRYYYEK		peptide exchange yield (HLA-A*03:01): 20 to 50%
YEVARILNL	20 to 50	
VLLGSLFSRK		peptide exchange yield (HLA-A*03:01): 20 to 50%
IEHSTQAQDTL	20 to 50	
VEQTRAGSLL	20 to 50	
LLQPPPLLAR		peptide exchange yield (HLA-A*03:01): 20 to 50%
